Source: patent US20120039908A1

target: T1, S100b protein (Cat. No. 559290, Calbiochem); test: ELISA, S100b coated on plate; reference baseline bioreactor R39
T1 sequence (P04271 2-92, species assumed, looked up): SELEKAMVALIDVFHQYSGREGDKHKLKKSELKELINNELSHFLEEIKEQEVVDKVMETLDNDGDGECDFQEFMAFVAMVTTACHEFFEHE

Sequence of RAGE-Fc fusion protein from bioreactor R79 (Ex Cell 325 PF CHO, 2-deoxy-D-glucose 1 g/L at day 7; 9), Day 12 (chain): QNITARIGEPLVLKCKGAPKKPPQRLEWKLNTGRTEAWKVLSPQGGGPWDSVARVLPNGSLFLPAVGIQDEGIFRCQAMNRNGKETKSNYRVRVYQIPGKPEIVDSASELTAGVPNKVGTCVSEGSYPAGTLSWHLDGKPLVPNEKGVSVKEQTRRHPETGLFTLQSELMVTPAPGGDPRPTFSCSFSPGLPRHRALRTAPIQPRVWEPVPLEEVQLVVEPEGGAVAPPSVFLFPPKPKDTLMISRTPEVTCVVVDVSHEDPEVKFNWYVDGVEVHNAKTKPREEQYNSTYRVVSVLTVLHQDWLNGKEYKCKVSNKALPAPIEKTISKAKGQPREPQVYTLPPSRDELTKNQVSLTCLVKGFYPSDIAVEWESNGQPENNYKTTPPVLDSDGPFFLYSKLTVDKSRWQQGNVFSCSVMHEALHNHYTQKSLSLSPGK
Sequence of RAGE-Fc fusion protein from bioreactor R66 (CD OptiCHO lipid-free, 2-deoxy-D-glucose 1 g/L at day 9), Day 12 (chain): as above
Sequence of RAGE-Fc fusion protein from bioreactor R80 (CD CHO, 2-deoxy-D-glucose 1 g/L at day 7; 9), Day 14 (chain): as above
Sequence of RAGE-Fc fusion protein from bioreactor R53 (2-deoxy-D-glucose 1 g/L at day 9; 11), Day 10 (chain): as above
Sequence of RAGE-Fc fusion protein from bioreactor R39 (control, no 2-deoxy-D-glucose), Day 12 (chain): as above
Sequence of RAGE-Fc fusion protein from bioreactor R66 (CD OptiCHO lipid-free, 2-deoxy-D-glucose 1 g/L at day 9), Day 14 (chain): as above
Sequence of RAGE-Fc fusion protein from bioreactor R80 (CD CHO, 2-deoxy-D-glucose 1 g/L at day 7; 9), Day 12 (chain): as above
Sequence of RAGE-Fc fusion protein from bioreactor R53 (2-deoxy-D-glucose 1 g/L at day 9; 11), Day 12 (chain): as above
Sequence of RAGE-Fc fusion protein from bioreactor R79 (Ex Cell 325 PF CHO, 2-deoxy-D-glucose 1 g/L at day 7; 9), Day 13 (chain): as above

Row | Substance | Relative binding compared to control | fold increase in S100b binding activity compared to baseline bioreactor R39 | fold S100b binding activity compared to control bioreactor R39
1 | RAGE-Fc fusion protein from bioreactor R53 (2-deoxy-D-glucose 1 g/L at day 9; 11), Day 12 | 1520% | – | –
2 | RAGE-Fc fusion protein from bioreactor R80 (CD CHO, 2-deoxy-D-glucose 1 g/L at day 7; 9), Day 12 | 1630% | – | –
3 | RAGE-Fc fusion protein from bioreactor R79 (Ex Cell 325 PF CHO, 2-deoxy-D-glucose 1 g/L at day 7; 9), Day 12 | 527% | 5 fold | –
4 | RAGE-Fc fusion protein from bioreactor R79 (Ex Cell 325 PF CHO, 2-deoxy-D-glucose 1 g/L at day 7; 9), Day 13 | 2960% | – | –
5 | RAGE-Fc fusion protein from bioreactor R80 (CD CHO, 2-deoxy-D-glucose 1 g/L at day 7; 9), Day 14 | 8080% | – | 80 fold

The next lines start with the values.

Row | Relative binding compared to control | fold increase in S100b binding activity compared to baseline bioreactor R39 | fold S100b binding activity compared to control bioreactor R39 | Substance
6 | 3520% | – | – | RAGE-Fc fusion protein from bioreactor R66 (CD OptiCHO lipid-free, 2-deoxy-D-glucose 1 g/L at day 9), Day 14
7 | 100% | – | – | RAGE-Fc fusion protein from bioreactor R39 (control, no 2-deoxy-D-glucose), Day 12
8 | 296% | – | – | RAGE-Fc fusion protein from bioreactor R53 (2-deoxy-D-glucose 1 g/L at day 9; 11), Day 10
9 | 3250% | 32 fold | – | RAGE-Fc fusion protein from bioreactor R66 (CD OptiCHO lipid-free, 2-deoxy-D-glucose 1 g/L at day 9), Day 12
